This note sets out measurements from the supplement of paper PMC7877785.

± gives the uncertainty stated by the source.

This data set can be described thus: self-splicing fitness, log relative to wild type (ln ratio); higher = more splicing; Tetrahymena group I intron in knt gene, E. coli kanamycin selection, DiMSum; sequences stand for … in CUCUCU…GGAGGGAAAAGUUAUCAGGCAUGCACCUGGUAGCUAGUCUUUAAACCAAUAGAUUGCAUCGGUUUAAAAGGCAAGACCGUCAAAUUGCGGGAAAGGGGUCAACAGCCGUUCAGUACCAAGUCUCAGGGGAAACUUUGAGAUGGCCUUGCAAAGGGUAUGGUAAUAAGCUGACGGACAUGGUCCUAACCACGCAGCCAAGUCCUAAGUCAACAGAUCUUCUGUUGAUAUGGAUGCAGUUCACAGACUAAAUGUCGGUCGGGGAAGAUGUAUUCUUCUCAUAAGAUAUAGUCGGACCUCUCCUUAAUGGGAGCUAGCGGAUGAAGUGAUGCAACACUGGAGCCGCUGGGAACUAAUUUGUAUGCGAAAGUAUAUUGAUUAGUUUUGGAGUACUCGUGGUCG
In a few lines: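 Library with all eight P1ex-region intron nucleotides randomised, intron inside the knt kanamycin-resistance gene on pET-22b(+), in E. coli BL21(DE3). Cells grew overnight at 37°C or 30°C on LB agar with or without 25 μg/mL kanamycin (plus 100 μg/mL carbenicillin, 50 μM IPTG, 0.2% rhamnose), in six replicate transformations. Pooled colonies were amplicon-sequenced on Illumina HiSeq 2500. DiMSum fitness is the error-weighted combination of wild-type-normalised replicate fold changes, kanamycin versus none.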

On to AAUUAGCAAUAUUACGUAAG, for which the “self-splicing fitness (ln)” value is -1.82 ± 0.12 (30 °C) and -0.936 ± 0.13 (37 °C).
CAACAGCAAUAUUACGCCGA: the “self-splicing fitness (ln)” value was -2.35 ± 0.18 (30 °C) and -1.76 ± 0.17 (37 °C).
Consider GACUAGCAAUAUUACGUCUU, for which the “self-splicing fitness (ln)” value (30 °C) is -0.971 ± 0.099 and the “self-splicing fitness (ln)” value (37 °C) is -1.39 ± 0.15.
Turning to GUGAAGCAAUAUUACGCCCU, the “self-splicing fitness (ln)” value reads like this: (30 °C) -0.176 ± 0.13; (37 °C) 0.602 ± 0.15.
As for AGGGAGCAAUAUUACGCAAG, for the setting “37 °C”, the “self-splicing fitness (ln)” value is -1.54 ± 0.3.
For the sequence GAAUAGCAAUAUUACGUCCC, the “self-splicing fitness (ln)” value (30 °C) is -1.33 ± 0.12 and the “self-splicing fitness (ln)” value (37 °C) is -0.165 ± 0.17.
Consider UUAGAGCAAUAUUACGUUUA, for which the “self-splicing fitness (ln)” value is, setting by setting: (30 °C) -2.01 ± 0.13; (37 °C) -0.913 ± 0.15.
In the same order, the values of UGGAAGCAAUAUUACGCUGC are -3.48 ± 0.32 and -2.15 ± 0.38.
The matching figures for UCCUAGCAAUAUUACGCAUC: -2.3 ± 0.21 and -1.27 ± 0.22.
In the case of CGUUAGCAAUAUUACGCUGA, the “self-splicing fitness (ln)” value runs as follows: (30 °C) -2.78 ± 0.3; (37 °C) -2.66 ± 0.29.
For the sequence GCCAAGCAAUAUUACGGAUA, the “self-splicing fitness (ln)” value was -0.904 ± 0.069 (30 °C) and -0.65 ± 0.073 (37 °C).
Take CCCUAGCAAUAUUACGCAGA: the “self-splicing fitness (ln)” value is, setting by setting: (30 °C) -3.68 ± 0.31; (37 °C) -1.73 ± 0.15.
Regarding CAACAGCAAUAUUACGAUGC, the “self-splicing fitness (ln)” value reads like this: (30 °C) -3.08 ± 0.15; (37 °C) -2.01 ± 0.16.
In the same order, the values of UGGAAGCAAUAUUACGCCAG are -1.55 ± 0.18 and 0.0553 ± 0.21.
In the same order, the values of AAGAAGCAAUAUUACGUUAG are -3.65 ± 0.31 and -2.77 ± 0.22.
In the same order, the values of CUGCAGCAAUAUUACGUACU are -2.89 ± 0.2 and -1.69 ± 0.21.
On to AUCUAGCAAUAUUACGGUGG, for which the “self-splicing fitness (ln)” value was -4.43 ± 0.46 (30 °C) and -2.53 ± 0.19 (37 °C).
In the case of CGAUAGCAAUAUUACGGGUA, the “self-splicing fitness (ln)” value reads like this: (30 °C) -3.87 ± 0.4; (37 °C) -2.64 ± 0.2.
The matching figures for AUGCAGCAAUAUUACGACUG: -3.44 ± 0.23 and -2.8 ± 0.31.
On to AUUGAGCAAUAUUACGCACG, for which, under “30 °C”, the “self-splicing fitness (ln)” value was -3.07 ± 0.37.
For GCCAAGCAAUAUUACGUCUC, the “self-splicing fitness (ln)” value is -0.775 ± 0.067 (30 °C) and -0.174 ± 0.087 (37 °C).
In the same order, the values of GUUGAGCAAUAUUACGUUUC are -2.09 ± 0.2 and -3.1 ± 0.34.
The matching figures for UGGUAGCAAUAUUACGGUGU: -4.11 ± 0.31 and -0.563 ± 0.13.
For GACCAGCAAUAUUACGGCCA, the “self-splicing fitness (ln)” value reads like this: (30 °C) -0.323 ± 0.077; (37 °C) 0.208 ± 0.13.
The matching figures for ACCUAGCAAUAUUACGGAUA: -1.65 ± 0.11 and -1.59 ± 0.099.
In the case of GCCAAGCAAUAUUACGUUGU, the “self-splicing fitness (ln)” value (30 °C) is -1.79 ± 0.064 and the “self-splicing fitness (ln)” value (37 °C) was -0.73 ± 0.072.
The matching figures for CGAAAGCAAUAUUACGGAGG: -0.982 ± 0.097 and -1.45 ± 0.14.
As to GUAAAGCAAUAUUACGCCGG, the “self-splicing fitness (ln)” value by setting is: (30 °C) -1.27 ± 0.13; (37 °C) 0.13 ± 0.17.
In the same order, the values of UACGAGCAAUAUUACGUCAU are -4.92 ± 0.45 and -3.92 ± 0.39.
With GGCCAGCAAUAUUACGCAUC, the “self-splicing fitness (ln)” value was -0.0388 ± 0.15 (30 °C) and 0.0683 ± 0.16 (37 °C).
Take UGUGAGCAAUAUUACGGCCC: the “self-splicing fitness (ln)” value runs as follows: (30 °C) -1.88 ± 0.33; (37 °C) -1.43 ± 0.44.
In the same order, the values of GAUAAGCAAUAUUACGUCUG are -2.51 ± 0.24 and -1.57 ± 0.25.
The matching figures for ACGUAGCAAUAUUACGAGCU: -1.36 ± 0.12 and -1.06 ± 0.14.
CAGCAGCAAUAUUACGAGGC: the “self-splicing fitness (ln)” value was -3.04 ± 0.17 (30 °C) and -2.92 ± 0.2 (37 °C).
With AACUAGCAAUAUUACGUGCC, the “self-splicing fitness (ln)” value is, setting by setting: (30 °C) -1.39 ± 0.12; (37 °C) -0.755 ± 0.13.
For GAUUAGCAAUAUUACGUCGG, the “self-splicing fitness (ln)” value was -2.66 ± 0.24 (30 °C) and -3.05 ± 0.29 (37 °C).
In the case of UCUUAGCAAUAUUACGUCCU, the “self-splicing fitness (ln)” value (30 °C) was -1.97 ± 0.28 and the “self-splicing fitness (ln)” value (37 °C) was -2.7 ± 0.38.
In the case of CGCCAGCAAUAUUACGUCUA, where the note is “37 °C”, the “self-splicing fitness (ln)” value is -2.52 ± 0.3.
As to ACUCAGCAAUAUUACGGUUU, the “self-splicing fitness (ln)” value reads like this: (30 °C) -0.62 ± 0.048; (37 °C) -0.291 ± 0.057.
The matching figures for UGGUAGCAAUAUUACGCUAU: -4.7 ± 0.42 and -2.87 ± 0.23.
In the same order, the values of CUUGAGCAAUAUUACGGAUU are -4.83 ± 0.45 and -3.23 ± 0.29.
In the same order, the values of CGAGAGCAAUAUUACGCGGG are -3.05 ± 0.32 and -2.16 ± 0.27.
Take AUUCAGCAAUAUUACGUUCC: the “self-splicing fitness (ln)” value is, setting by setting: (30 °C) -1.54 ± 0.14; (37 °C) -1.5 ± 0.21.
As to UAACAGCAAUAUUACGAUCC, the “self-splicing fitness (ln)” value (37 °C) is -2.04 ± 0.42.
Turning to GUCAAGCAAUAUUACGGCAU, the “self-splicing fitness (ln)” value is, setting by setting: (30 °C) -1.55 ± 0.083; (37 °C) -0.119 ± 0.1.
As for UUGCAGCAAUAUUACGACUA, the “self-splicing fitness (ln)” value by setting is: (30 °C) 0.37 ± 0.1; (37 °C) 0.519 ± 0.12.
GCGCAGCAAUAUUACGCCCU: the “self-splicing fitness (ln)” value (37 °C) was 0.00379 ± 0.44.
Take AUCCAGCAAUAUUACGUAUU: the “self-splicing fitness (ln)” value was -1.84 ± 0.078 (30 °C) and -1.23 ± 0.093 (37 °C).
Consider AUGCAGCAAUAUUACGUAAC, for which the “self-splicing fitness (ln)” value is -2.78 ± 0.2 (30 °C) and -0.366 ± 0.15 (37 °C).
In the same order, the values of GCUCAGCAAUAUUACGUACC are 0.00766 ± 0.067 and 0.487 ± 0.1.
In the same order, the values of CGCAAGCAAUAUUACGCUGU are -3.81 ± 0.24 and -1.48 ± 0.16.
As to GUUUAGCAAUAUUACGCUGG, the “self-splicing fitness (ln)” value is -2.55 ± 0.25 (30 °C) and -0.944 ± 0.26 (37 °C).
The matching figures for UCCAAGCAAUAUUACGACUG: -3.78 ± 0.16 and -2.6 ± 0.17.
In the same order, the values of AGACAGCAAUAUUACGCUUG are -2.71 ± 0.13 and -1 ± 0.12.
As for AGGCAGCAAUAUUACGUUCG, the “self-splicing fitness (ln)” value runs as follows: (30 °C) -0.642 ± 0.079; (37 °C) -0.181 ± 0.11.
In the same order, the values of GCGAAGCAAUAUUACGGCUA are 0.15 ± 0.15 and -0.618 ± 0.12.
In the same order, the values of ACUCAGCAAUAUUACGACAC are -1.44 ± 0.12 and -0.127 ± 0.14.
The matching figures for UGCCAGCAAUAUUACGGGCG: -3.1 ± 0.16 and -2.73 ± 0.21.
On to GUCAAGCAAUAUUACGUGAG, for which the “self-splicing fitness (ln)” value is, setting by setting: (30 °C) -1.2 ± 0.054; (37 °C) -0.505 ± 0.067.
Regarding UACUAGCAAUAUUACGCUAA, the “self-splicing fitness (ln)” value is -1.31 ± 0.14 (30 °C) and -0.697 ± 0.1 (37 °C).
For GAGAAGCAAUAUUACGGGCA, the “self-splicing fitness (ln)” value was -0.782 ± 0.1 (30 °C) and -0.441 ± 0.087 (37 °C).
As for CAGAAGCAAUAUUACGCGCU, the “self-splicing fitness (ln)” value was -2.62 ± 0.17 (30 °C) and -1.92 ± 0.18 (37 °C).
The matching figures for UCCGAGCAAUAUUACGUAUC: -2.88 ± 0.25 and -2.07 ± 0.37.
In the same order, the values of UAAAAGCAAUAUUACGUCGC are -3.18 ± 0.24 and -2.44 ± 0.36.
In the case of AAAAAGCAAUAUUACGUAUA, the “self-splicing fitness (ln)” value is -2.14 ± 0.14 (30 °C) and -1.5 ± 0.15 (37 °C).
On to UUGCAGCAAUAUUACGCGGU, for which the “self-splicing fitness (ln)” value (30 °C) was -3.63 ± 0.35.
In the case of AGUGAGCAAUAUUACGUCGU, the “self-splicing fitness (ln)” value by setting is: (30 °C) -3.79 ± 0.2; (37 °C) -2.07 ± 0.14.
Regarding UCCGAGCAAUAUUACGGUUG, the “self-splicing fitness (ln)” value is, setting by setting: (30 °C) -3.29 ± 0.26; (37 °C) -3.07 ± 0.3.
For the sequence CACCAGCAAUAUUACGCUUU, the “self-splicing fitness (ln)” value is -3.8 ± 0.14 (30 °C) and -1.94 ± 0.093 (37 °C).
Regarding UUACAGCAAUAUUACGCGGU, the “self-splicing fitness (ln)” value (30 °C) was -2.9 ± 0.12 and the “self-splicing fitness (ln)” value (37 °C) was -3.15 ± 0.24.
In the same order, the values of GCGCAGCAAUAUUACGGCUC are -0.438 ± 0.12 and 0.47 ± 0.15.
The matching figures for ACCAAGCAAUAUUACGCAUU: -2.81 ± 0.085 and -1.26 ± 0.077.
As to GGACAGCAAUAUUACGAAAU, the “self-splicing fitness (ln)” value was -1.25 ± 0.11 (30 °C) and -0.0392 ± 0.14 (37 °C).
For AAUUAGCAAUAUUACGUACA, the “self-splicing fitness (ln)” value runs as follows: (30 °C) -0.782 ± 0.086; (37 °C) -0.498 ± 0.096.
For the sequence GGGGAGCAAUAUUACGAAAG, the “self-splicing fitness (ln)” value (30 °C) is -3.12 ± 0.44.
As for AUAGAGCAAUAUUACGGAAA, the “self-splicing fitness (ln)” value reads like this: (30 °C) -2.73 ± 0.22; (37 °C) -2.19 ± 0.38.
Take CACUAGCAAUAUUACGGCGC: the “self-splicing fitness (ln)” value runs as follows: (30 °C) -2.98 ± 0.15; (37 °C) -1.11 ± 0.15.
